{"source": "patent US20240190987A1", "about": "“Engineered EpCam Binding Antibodies” (TigaTX, priority 2021, published 2024)", "assay": "Differential scanning fluorimetry (DSF) melting temperature", "type": "physicochemical", "experimental": "DSF was performed on a LC480 Lightcycler Instrument II (Roche). Purified recombinant protein was diluted to 5 μM in DSF buffer (PBS, pH 7.4, Sypro Orange 5×) with small molecule (10 μM VTX) or vehicle (0.05% DMSO) and then heated with a temperature gradient (0.01° C./s) from 25 to 95° C. Data were continuously acquired at ˜465 nm (excitation) and ˜580 nm (emission). Data was analyzed to generate first derivative curves in which the curve maximum was reported as the melting temperature of the protein.", "key": {"[1]": {"settings": "thermostability by DSF, Table 26"}}, "data": [{"molecule": "Ab0775: anti-CD3 binding domain, FIGS. 7A-7C (antibody, light chain not cited; REGION 1..482: note = Ab0775 HC) heavy: EVQLVESGGGLVQPGGSLRLSCAASGFTFNTYAMNWVRQAPGKGLEWVGRIRSKYNNYATYYADSVKGRFTISRDDSKSILYLQMNSLRAEDTAVYYCVRHGNFGNSYVSWFAYWGQGTLVTVSSGGGGSGGGGSGGGGSDIQVTQSPSSLSASVGDRVTITCRSSTGAVTTSNYANWVQQKPGKAFKGLIGGTNKRAPGVPSRFSGSLSGDDATLTISSLQPEDFATYYCALWYSNLWVFGQGTKLEIKGGGGSDKTHTCPPCPAPEAAGGPSVFLFPPKPKDTLMISRTPEVTCVVVDVSHEDPEVKFNWYVDGVEVHNAKTKPREEQYNSTYRVVSVLTVLHQDWLNGKEYKCKVSNKALGAPIEKTISKAKGQPREPQVYTLPPSRDELTKNQVSLTCLVKGFYPSDIAVEWESNGQPENNYKTTPPVLDSDGSFFLYSKLTVDKSRWQQGNVFSCSVMHEALHNHYTQKSLSLSPGK", "values": [{"measurement": "TM (° C.)", "setting": "DSF, hSP34v68 R1 variants (Table 23)", "value": 64.1, "unit": "°C"}]}, {"molecule": "Ab1069: anti-EpCAM T-LITE (CT) antibody, FIGS. 8A-8C, 9C (protein, REGION 1..215: note = Ab1069 Hole LC; REGION 1..478: note = Ab1069 Knob KC; REGION 1..446: note = Ab1069 Hole HC) light: DIQMTQSPSSLSASVGDRVTITCSASSSVSSGNFHWYQQKPGKAPKLLIYRTSNLASGVPSRFSGSGSGTDYTLTISSLQPEDFATYYCQQWSGYPYTFGQGTKVEIKRTVAAPSVFIFPPSDEQLKSGTASVVCLLNNFYPREAKVQWKVDNALQSGNSQESVTEQDSKDSTYSLSSTLTLSKADYEKHKVYACEVTHQGLSSPVTKSFNRGEC heavy 1: QVQLVQSGAEVKKPGASVKVSCKASGYTFTSYWMHWVRQHPGQGLEWMGMIHPNSGGTNYAQKFQGRVTMTRDTSTSTVYMELSSLRSEDTAVYYCAMGDYVSRDYWGQGTLVTVSSGGGGSGGGGSGGGGSEIVLTQSPGTLSLSPGERATLSCRASSSVSSSYLHWYQQKPGQAPRLLIYSTSSRATGIPDRFSGSGSGTDFTLTISRLEPEDFAVYYCQQYSGYQFTFGQGTKLEIKGGGGSDKTHTCPPCPAPEAAGGPSVFLFPPKPKDTLMISRTPEVTCVVVDVSHEDPEVKFNWYVDGVEVHNAKTKPREEQYNSTYRVVSVLTVLHQDWLNGKEYKCKVSNKALGAPIEKTISKAKGQPREPMVFDLPPSREEMTKNQVSLWCMVKGFYPSDIAVEWESNGQPENNYKTTPPVLDSDGSFFLYSKLTVDKSRWQQGNVFSCSVMHEALHNHYTQKSLSLSPGKHHHHHH heavy 2: EVQLVESGGGLVQPGGSLRLSCAASGFTFSNYWMNWVRQAPGKGLEWVAQIRVKSENFATHYADSVKGRFTISRDDSKSTVYLQMNSLRAEDTAVYYCTLYDGFSWGQGTLVTVSSASTKGPSVFPLAPSSKSTSGGTAALGCLVKDYFPEPVTVSWNSGALTSGVHTFPAVLQSSGLYSLSSVVTVPSSSLGTQTYICNVNHKPSNTKVDKKVEPKSCDKTHTCPPCPAPEAAGGPSVFLFPPKPKDTLMISRTPEVTCVVVDVSHEDPEVKFNWYVDGVEVHNAKTKPREEQYNSTYRVVSVLTVLHQDWLNGKEYKCKVSNKALGAPIEKTISKAKGQPREPQVYTLPPIRELMTSNQVSLSCAVKGFYPSDIAVEWESNGQPENNYKTTPPVLDSDGSFFLVSKLTVDKSRWQQGNVFSCSVMHEALHNHYTQKSLSLSPGK", "values": [{"measurement": "TM (° C.)", "setting": "thermostability by DSF, Table 27", "value": 72.0, "unit": "°C"}]}, {"molecule": "Ab0785: LS2A R2M34 Fab, His-Tag, Avi-Tag (antibody, V domains shown) VH: QVQLVQSGAEVKKPGASVKVSCKASGYTFTSYWMHWVRQHPGQGLEWMGIIHPNSGGTSYAQKFQGRVTMTRDTSTSTVYMELSSLRSEDTAVYYCAMGDYVSRDYWGQGTLVTVSS VL: EIVLTQSPGTLSLSPGERATLSCRASSSVSSSYLHWYQQKPGQAPRLLIYSTSSRATGIPDRFSGSGSGTDFTLTISRLEPEDFAVYYCQQYSGYQFTFGQGTKLEIK", "values": [{"measurement": "TM (° C.)", "setting": "Table 19", "value": 70.9, "unit": "°C"}]}, {"molecule": "Ab0788: LS2A R3M3 Fab, HC: S58N on R2M34 (antibody) heavy: QVQLVQSGAEVKKPGASVKVSCKASGYTFTSYWMHWVRQHPGQGLEWMGIIHPNSGGTNYAQKFQGRVTMTRDTSTSTVYMELSSLRSEDTAVYYCAMGDYVSRDYWGQGTLVTVSSASTKGPSVFPLAPSSKSTSGGTAALGCLVKDYFPEPVTVSWNSGALTSGVHTFPAVLQSSGLYSLSSVVTVPSSSLGTQTYICNVNHKPSNTKVDKKVEPKSCGGGGSHHHHHHGGGGSGLNDIFEAQKIEWHEG VL: EIVLTQSPGTLSLSPGERATLSCRASSSVSSSYLHWYQQKPGQAPRLLIYSTSSRATGIPDRFSGSGSGTDFTLTISRLEPEDFAVYYCQQYSGYQFTFGQGTKLEIK", "values": [{"measurement": "TM (° C.)", "setting": "Table 19", "value": 70.1, "unit": "°C"}]}, {"molecule": "Ab0898: humanized LS2A R2M34 (antibody, light chain not cited; REGION 1..472: note = Ab0898 HC, humanized LS2A R2M34) heavy: QVQLVQSGAEVKKPGASVKVSCKASGYTFTSYWMHWVRQHPGQGLEWMGIIHPNSGGTSYAQKFQGRVTMTRDTSTSTVYMELSSLRSEDTAVYYCAMGDYVSRDYWGQGTLVTVSSGGGGSGGGGSGGGGSEIVLTQSPGTLSLSPGERATLSCRASSSVSSSYLHWYQQKPGQAPRLLIYSTSSRATGIPDRFSGSGSGTDFTLTISRLEPEDFAVYYCQQYSGYQFTFGQGTKLEIKGGGGSDKTHTCPPCPAPEAAGGPSVFLFPPKPKDTLMISRTPEVTCVVVDVSHEDPEVKFNWYVDGVEVHNAKTKPREEQYNSTYRVVSVLTVLHQDWLNGKEYKCKVSNKALGAPIEKTISKAKGQPREPQVYTLPPSRDELTKNQVSLTCLVKGFYPSDIAVEWESNGQPENNYKTTPPVLDSDGSFFLYSKLTVDKSRWQQGNVFSCSVMHEALHNHYTQKSLSLSPGK", "values": [{"measurement": "TM (° C.)", "setting": "scFv-Fc format, LS2A R3 (Table 20)", "value": 52.5, "unit": "°C"}]}, {"molecule": "Ab1018: anti-EpCAM binding domain, FIGS. 8A-8C (antibody, V domains shown) VH: EVQLVESGGGLVQPGGSLRLSCAASGFTFSNYWMNWVRQAPGKGLEWVAQIRVKSENFATHYADSVKGRFTISRDDSKSTVYLQMNSLRAEDTAVYYCTLYEGFSWGQGTLVTVSS VL: DIQMTQSPSSLSASVGDRVTITCSASSSVSSGNFHWYQQKPGKAPKLLIYRTSNLASGVPSRFSGSGSGTDYTLTISSLQPEDFATYYCQQWSGYPYTFGQGTKVEIK", "values": [{"measurement": "TM (° C.)", "setting": "[1]", "value": 69.9, "unit": "°C"}]}, {"molecule": "Ab1066: anti-EpCAM binding domain, FIGS. 8A-8C (antibody, V domains shown) VH: EVQLVESGGGLVQPGGSLRLSCAASGFTFSNYWMNWVRQAPGKGLEWVAQIRVKSENFATHYADSVKGRFTISRDDSKSTVYLQMNSLRAEDTAVYYCTLYDAFSWGQGTLVTVSS VL: DIQMTQSPSSLSASVGDRVTITCSASSSVSSGNFHWYQQKPGKAPKLLIYRTSNLASGVPSRFSGSGSGTDYTLTISSLQPEDFATYYCQQASGYPYTFGQGTKVEIK", "values": [{"measurement": "TM (° C.)", "setting": "[1]", "value": 70.4, "unit": "°C"}]}, {"molecule": "Ab1020: anti-EpCAM binding domain, FIGS. 8A-8C (antibody, V domains shown) VH: EVQLVESGGGLVQPGGSLRLSCAASGFTFSNYWMHWVRQAPGKGLEWVAQIRVKSENFATHYADSVKGRFTISRDDSKSTVYLQMNSLRAEDTAVYYCTLYDGFSWGQGTLVTVSS VL: DIQMTQSPSSLSASVGDRVTITCSASSSVSSGNFHWYQQKPGKAPKLLIYRTSNLASGVPSRFSGSGSGTDYTLTISSLQPEDFATYYCQQWSGYPYTFGQGTKVEIK", "values": [{"measurement": "TM (° C.)", "setting": "[1]", "value": 68, "unit": "°C"}]}, {"molecule": "Ab1026: anti-EpCAM binding domain, FIGS. 8A-8C (antibody, V domains shown) VH: EVQLVESGGGLVQPGGSLRLSCAASGFTFSNYWMNWVRQAPGKGLEWVAQIRVKSENFATHYADSVKGRFTISRDDSKSTVYLQMNSLRAEDTAVYYCTLYDGFSWGQGTLVTVSS VL: DIQMTQSPSSLSASVGDRVTITCSASSSVSSGNFHWYQQKPGKAPKLLIYRTSNLASGVPSRFSGSGSGTDYTLTISSLQPEDFATYYCQQASGYPYTFGQGTKVEIK", "values": [{"measurement": "TM (° C.)", "setting": "[1]", "value": 69.1, "unit": "°C"}]}, {"molecule": "Ab1024: anti-EpCAM binding domain, FIGS. 8A-8C (antibody, V domains shown) VH: EVQLVESGGGLVQPGGSLRLSCAASGFTFSNYWMNWVRQAPGKGLEWVAQIRVKSENFATHYVDSVKGRFTISRDDSKSTVYLQMNSLRAEDTAVYYCTLYDGFSWGQGTLVTVSS VL: DIQMTQSPSSLSASVGDRVTITCSASSSVSSGNFHWYQQKPGKAPKLLIYRTSNLASGVPSRFSGSGSGTDYTLTISSLQPEDFATYYCQQWSGYPYTFGQGTKVEIK", "values": [{"measurement": "TM (° C.)", "setting": "[1]", "value": 73.2, "unit": "°C"}]}, {"molecule": "Ab1022: anti-EpCAM binding domain, FIGS. 8A-8C (antibody, V domains shown) VH: EVQLVESGGGLVQPGGSLRLSCAASGFTFSNYWMNWVRQHPGKGLEWVAQIRVKSENFATHYADSVKGRFTISRDDSKSTVYLQMNSLRAEDTAVYYCTLYDGFSWGQGTLVTVSS VL: DIQMTQSPSSLSASVGDRVTITCSASSSVSSGNFHWYQQKPGKAPKLLIYRTSNLASGVPSRFSGSGSGTDYTLTISSLQPEDFATYYCQQWSGYPYTFGQGTKVEIK", "values": [{"measurement": "TM (° C.)", "setting": "[1]", "value": 69.6, "unit": "°C"}]}, {"molecule": "Ab1065 (antibody, V domains shown) VH: EVQLVESGGGLVQPGGSLRLSCAASGFTFSNYWMNWVRQAPGKGLEWVAQIRVKSENFATHYADSVKGRFTISRDDSKSTVYLQMNSLRAEDTAVYYCTLYEGFSWGQGTLVTVSS VL: DIQMTQSPSSLSASVGDRVTITCSASSSVSSGNFHWYQQKPGKAPKLLIYRTSNLASGVPSRFSGSGSGTDYTLTISSLQPEDFATYYCQQASGYPYTFGQGTKVEIK", "values": [{"measurement": "TM (° C.)", "setting": "[1]", "value": 72.3, "unit": "°C"}]}]}
